Results: PMC8046733 (Immunity, 2021)

Molecular target: HCV-1 E1E2 (autologous strain) (Hepatitis C virus genotype 1a, strain …, UniProt P26664, strain)
Experiment: ELISA

| Binder | binding result |
| --- | --- |
| RM2-01 heavy-chain variant I51A (antibody, V domains shown) VH: QVQLVQSGAEVKKPGASVKLSCKASGFTFRIYAISWVRQAPGQGLEWMGEAVPLGGITNYAQNFQGRAAITADTSINTAYMELSSLRSDDTAVYYCARVRTALVGPREGIFDFWGQGVLVTVSS VL: DIQMTQSPSSLSASVGDRVSITCRASQTISTYLAWYQQKPGKVPKLLIYTASTLETGVPSRFSGSGSGTEFTLTISSLQPEDFATYYCQQHDSHPYSFGQGTKVEIK | binds |
| RM2-01 heavy-chain variant P52aA (antibody, V domains shown) VH: QVQLVQSGAEVKKPGASVKLSCKASGFTFRIYAISWVRQAPGQGLEWMGEIVALGGITNYAQNFQGRAAITADTSINTAYMELSSLRSDDTAVYYCARVRTALVGPREGIFDFWGQGVLVTVSS VL: DIQMTQSPSSLSASVGDRVSITCRASQTISTYLAWYQQKPGKVPKLLIYTASTLETGVPSRFSGSGSGTEFTLTISSLQPEDFATYYCQQHDSHPYSFGQGTKVEIK | binds |
| RM2-01 heavy-chain variant I56A (antibody, V domains shown) VH: QVQLVQSGAEVKKPGASVKLSCKASGFTFRIYAISWVRQAPGQGLEWMGEIVPLGGATNYAQNFQGRAAITADTSINTAYMELSSLRSDDTAVYYCARVRTALVGPREGIFDFWGQGVLVTVSS VL: DIQMTQSPSSLSASVGDRVSITCRASQTISTYLAWYQQKPGKVPKLLIYTASTLETGVPSRFSGSGSGTEFTLTISSLQPEDFATYYCQQHDSHPYSFGQGTKVEIK | binds |
| RM11-43 heavy-chain variant I52A (antibody, V domains shown) VH: QVQLVQSGAEVKKPGASVKLSCKASGFTFRIYAISWVRQAPGQGLEWMGEIAPLGGITNYAQKFQGRVTITADTSTSTAYMELSSLRSEDTAVYYCARGETKMITVLAGTTGGGLDSWGQGTLVTVSS VL: DIQMTQSPSSLSASVGDKVTITCHASQGISSWLAWYQQKPGKAPKPLIYAASSLQSGVPSRFSGGGSGADYTLTISSLQPEDFATYYCQQYDDLPRTFGQGTKVEIK | binds |
| RM11-43 heavy-chain variant L53A (antibody, V domains shown) VH: QVQLVQSGAEVKKPGASVKLSCKASGFTFRIYAISWVRQAPGQGLEWMGEIIPAGGITNYAQKFQGRVTITADTSTSTAYMELSSLRSEDTAVYYCARGETKMITVLAGTTGGGLDSWGQGTLVTVSS VL: DIQMTQSPSSLSASVGDKVTITCHASQGISSWLAWYQQKPGKAPKPLIYAASSLQSGVPSRFSGGGSGADYTLTISSLQPEDFATYYCQQYDDLPRTFGQGTKVEIK | binds |
| RM11-43 heavy-chain variant I56A (antibody, V domains shown) VH: QVQLVQSGAEVKKPGASVKLSCKASGFTFRIYAISWVRQAPGQGLEWMGEIIPLGGATNYAQKFQGRVTITADTSTSTAYMELSSLRSEDTAVYYCARGETKMITVLAGTTGGGLDSWGQGTLVTVSS VL: DIQMTQSPSSLSASVGDKVTITCHASQGISSWLAWYQQKPGKAPKPLIYAASSLQSGVPSRFSGGGSGADYTLTISSLQPEDFATYYCQQYDDLPRTFGQGTKVEIK | binds |
